Among the data in publication PMC2688732 are Kd values, retold here.

The experiment concerns the target C-reactive protein (CRP) (human) (UniProt P02741). Nature of the experiment: SPR. Background: SPR reads the build-up and loss of mass on a sensor chip optically.
Chain of UniProt P02741 (P02741 19-224): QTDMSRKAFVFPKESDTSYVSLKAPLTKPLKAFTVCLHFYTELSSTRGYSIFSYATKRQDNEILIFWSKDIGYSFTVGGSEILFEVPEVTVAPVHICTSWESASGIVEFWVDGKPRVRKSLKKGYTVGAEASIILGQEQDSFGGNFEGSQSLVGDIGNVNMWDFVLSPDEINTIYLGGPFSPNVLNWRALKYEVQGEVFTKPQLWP

On to “extracellular domain of FcγRIIa (from UniProt P12318 34-204) (receptor)”, for which the Kd (usually the constant that tells how readily two partners part at equilibrium) turned out to be 1.9 µM.
